Measurements: article PMC2244645 (2007)

Biological target: alpha-synuclein (Homo sapiens, UniProt P37840)
Assay: SPR

| Kd [µM] | Binder |
| --- | --- |
| 19 | AQSTQ [QSTQ peptide (immobilized with added N-terminal alanine)] |
| > 190 | APTYF [PTYF peptide (immobilized with added N-terminal alanine)] |
